# T1: aCBF5 protein (archaeal CBF5 RNA:Ψ-synthase), Pyrococcus abyssi, cleaved from GST (Pyrococcus abyssi, UniProt Q9V1A5 1-334)
# T1 sequence (looked up): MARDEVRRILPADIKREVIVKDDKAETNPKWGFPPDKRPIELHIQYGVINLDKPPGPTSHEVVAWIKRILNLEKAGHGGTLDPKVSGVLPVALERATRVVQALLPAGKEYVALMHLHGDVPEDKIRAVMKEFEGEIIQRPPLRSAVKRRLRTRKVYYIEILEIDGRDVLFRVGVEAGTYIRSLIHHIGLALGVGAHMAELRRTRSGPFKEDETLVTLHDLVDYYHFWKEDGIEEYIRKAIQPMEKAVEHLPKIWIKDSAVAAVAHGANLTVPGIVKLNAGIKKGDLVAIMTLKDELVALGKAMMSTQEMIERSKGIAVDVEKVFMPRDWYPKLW
# T2: aCBF5 (Pyrococcus abyssi GE5, UniProt Q9V1A5 1-334)
# T2 sequence: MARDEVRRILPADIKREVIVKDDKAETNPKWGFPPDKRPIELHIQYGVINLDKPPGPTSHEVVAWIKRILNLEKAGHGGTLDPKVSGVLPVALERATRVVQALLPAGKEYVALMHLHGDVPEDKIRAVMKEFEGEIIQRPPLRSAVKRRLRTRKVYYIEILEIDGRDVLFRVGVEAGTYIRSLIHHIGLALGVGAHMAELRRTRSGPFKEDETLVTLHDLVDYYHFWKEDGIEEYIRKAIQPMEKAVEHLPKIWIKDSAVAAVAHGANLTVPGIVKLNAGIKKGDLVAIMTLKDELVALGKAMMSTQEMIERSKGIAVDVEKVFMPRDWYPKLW
# T3: aCBF5;aNOP10 (Pyrococcus abyssi GE5;Pyrococcus abyssi …, UniProt Q9V1A5;Q9V0E3 1-334;1-60, |)
# T3 sequence 1: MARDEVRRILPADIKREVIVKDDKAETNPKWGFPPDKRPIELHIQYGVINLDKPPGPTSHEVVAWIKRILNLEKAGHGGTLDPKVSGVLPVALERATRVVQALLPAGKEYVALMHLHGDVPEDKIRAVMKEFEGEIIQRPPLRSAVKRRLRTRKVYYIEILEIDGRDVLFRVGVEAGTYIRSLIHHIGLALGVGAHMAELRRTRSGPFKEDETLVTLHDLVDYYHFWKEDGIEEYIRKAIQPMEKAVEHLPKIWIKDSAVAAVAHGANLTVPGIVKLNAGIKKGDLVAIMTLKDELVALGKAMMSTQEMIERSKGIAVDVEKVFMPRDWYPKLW
# T3 sequence 2: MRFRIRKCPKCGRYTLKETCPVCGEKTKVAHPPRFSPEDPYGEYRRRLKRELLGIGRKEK
# Tests used:
# [1] = molecular target: T1, aCBF5 protein (archaeal CBF5 …); experiment: pull-down
# [2] = molecular target: T1, aCBF5 protein (archaeal CBF5 …); experiment: native gel or EMSA
# aCBF5 = molecular target: T2, aCBF5; experiment: EMSA
# aCBF5;aNOP10 = molecular target: T3, aCBF5;aNOP10; experiment: EMSA
binder,measurement,setting,value
"GST-aNOP10 fusion protein (natural protein, Pyrococcus abyssi, UniProt Q9V0E3 1-60, looked up) MRFRIRKCPKCGRYTLKETCPVCGEKTKVAHPPRFSPEDPYGEYRRRLKRELLGIGRKEK",binding result,[1],binds
"aNOP10 protein, Pyrococcus abyssi, cleaved from GST (natural protein, UniProt Q9V0E3 1-60, looked up) MRFRIRKCPKCGRYTLKETCPVCGEKTKVAHPPRFSPEDPYGEYRRRLKRELLGIGRKEK",binding result,[2],binds
Pab91mtGA (structured_RNA) RNA: GGGUAAUGCCCCUCCCCUCUCACACCUCCGGGAUCAGUCCCCGGAGGGCGGUCGGGGAGGGGACACCU,binding result,aCBF5,binds
same,binding result,aCBF5;aNOP10,binds
